We go through 16 molecules from patent US12304939B2, “EGFR and C-met fibronectin type III domain binding molecules” (Janssen Biotech, Inc., priority 2012, dated 2025).

First the molecules themselves.
B1: ECB94: bispecific SEQ ID NO: 61: P54AR4-83v22, (AP)5, P114AR7P94-A3v22 (protein)
chain: MLPAPKNLVVSEVTEDSARLSWDDPWAFYESFLIQYQESEKVGEAIVLTVPGSERSYDLTGLKPGTEYTVSIYGVHNVYKDTNIRGLPLSAIFTTAPAPAPAPAPLPAPKNLVVSRVTEDSARLSWTAPDAAFDSFWIRYFEFLGSGEAIVLTVPGSERSYDLTGLKPGTEYVVNILGVKGGKISPPLSAIFTT
modifications: bispecific EGFR/cMet binding molecule
B2: ECB107: bispecific SEQ ID NO: 66: P54AR4-83v23, (AP)5, P114AR9P121-A6v2 (protein)
chain: MLPAPKNLVVSEVTEDSARLSWDDPHAFYESFLIQYQESEKVGEAIVLTVPGSERSYDLTGLKPGTEYTVSIYGVHNVYKDTNIRGLPLSAIFTTAPAPAPAPAPLPAPKNLVVSRVTEDSARLSWTAPDAAFDSFWIRYFEFVGSGEAIVLTVPGSERSYDLTGLKPGTEYVVNILGVKGGSISPPLSAIFTT
modifications: bispecific EGFR/cMet binding molecule
B3: ECB95: bispecific SEQ ID NO: 62: P54AR4-83v22, (AP)5, P114AR9P121-A6v2 (protein)
chain: MLPAPKNLVVSEVTEDSARLSWDDPWAFYESFLIQYQESEKVGEAIVLTVPGSERSYDLTGLKPGTEYTVSIYGVHNVYKDTNIRGLPLSAIFTTAPAPAPAPAPLPAPKNLVVSRVTEDSARLSWTAPDAAFDSFWIRYFEFVGSGEAIVLTVPGSERSYDLTGLKPGTEYVVNILGVKGGSISPPLSAIFTT
modifications: bispecific EGFR/cMet binding molecule
B4: ECB108: bispecific SEQ ID NO: 67: P54AR4-83v23, (AP)5, P114AR9P122-A7v2 (protein)
chain: MLPAPKNLVVSEVTEDSARLSWDDPHAFYESFLIQYQESEKVGEAIVLTVPGSERSYDLTGLKPGTEYTVSIYGVHNVYKDTNIRGLPLSAIFTTAPAPAPAPAPLPAPKNLVVSRVTEDSARLSWTAPDAAFDSFWIRYFEFVSKGDAIVLTVPGSERSYDLTGLKPGTEYVVNILGVKGGSISPPLSAIFTT
modifications: bispecific EGFR/cMet binding molecule
B5: ECB106: bispecific SEQ ID NO: 65: P54AR4-83v23, (AP)5, P114AR7P94-A3v22 (protein)
chain: MLPAPKNLVVSEVTEDSARLSWDDPHAFYESFLIQYQESEKVGEAIVLTVPGSERSYDLTGLKPGTEYTVSIYGVHNVYKDTNIRGLPLSAIFTTAPAPAPAPAPLPAPKNLVVSRVTEDSARLSWTAPDAAFDSFWIRYFEFLGSGEAIVLTVPGSERSYDLTGLKPGTEYVVNILGVKGGKISPPLSAIFTT
modifications: bispecific EGFR/cMet binding molecule
B6: ECB97: bispecific SEQ ID NO: 64: P54AR4-83v22, (AP)5, P114AR7P95-C5v2 (protein)
chain: MLPAPKNLVVSEVTEDSARLSWDDPWAFYESFLIQYQESEKVGEAIVLTVPGSERSYDLTGLKPGTEYTVSIYGVHNVYKDTNIRGLPLSAIFTTAPAPAPAPAPLPAPKNLVVSRVTEDSARLSWTAPDAAFDSFWIRYFEFLGSGEAIVLTVPGSERSYDLTGLKPGTEYVVNILSVKGGSISPPLSAIFTT
modifications: bispecific EGFR/cMet binding molecule
B7: ECB96: bispecific SEQ ID NO: 63: P54AR4-83v22, (AP)5, P114AR9P122-A7v2 (protein)
chain: MLPAPKNLVVSEVTEDSARLSWDDPWAFYESFLIQYQESEKVGEAIVLTVPGSERSYDLTGLKPGTEYTVSIYGVHNVYKDTNIRGLPLSAIFTTAPAPAPAPAPLPAPKNLVVSRVTEDSARLSWTAPDAAFDSFWIRYFEFVSKGDAIVLTVPGSERSYDLTGLKPGTEYVVNILGVKGGSISPPLSAIFTT
modifications: bispecific EGFR/cMet binding molecule
B8: ECB109: bispecific SEQ ID NO: 68: P54AR4-83v23, (AP)5, P114AR7P95-C5v2 (protein)
chain: MLPAPKNLVVSEVTEDSARLSWDDPHAFYESFLIQYQESEKVGEAIVLTVPGSERSYDLTGLKPGTEYTVSIYGVHNVYKDTNIRGLPLSAIFTTAPAPAPAPAPLPAPKNLVVSRVTEDSARLSWTAPDAAFDSFWIRYFEFLGSGEAIVLTVPGSERSYDLTGLKPGTEYVVNILSVKGGSISPPLSAIFTT
modifications: bispecific EGFR/cMet binding molecule
B9: ECB39: bispecific SEQ ID NO: 121: P53A1R5-17v2, (AP)5, P114AR7P94-A3, linked to albumin binding domain (protein)
chain: MLPAPKNLVVSEVTEDSARLSWADPHGFYDSFLIQYQESEKVGEAIVLTVPGSERSYDLTGLKPGTEYTVSIYGVHNVYKDTNMRGLPLSAIFTTAPAPAPAPAPLPAPKNLVVSRVTEDSARLSWTAPDAAFDSFWIRYFEFLGSGEAIVLTVPGSERSYDLTGLKPGTEYVVNIMGVKGGKISPPLSAIFTTAPAPAPAPAPLAEAKVLANRELDKYGVSDYYKNLINNAKTVEGVKALLDEILAALP
modifications: Bispecific EGFR/c-Met binding molecule
B10: ECB18: bispecific SEQ ID NO: 118: P54AR4-83v2, (AP)5, P114AR5P74-A5, linked to albumin binding domain (protein)
chain: MLPAPKNLVVSEVTEDSARLSWDDPWAFYESFLIQYQESEKVGEAIVLTVPGSERSYDLTGLKPGTEYTVSIYGVHNVYKDTNMRGLPLSAIFTTAPAPAPAPAPLPAPKNLVVSRVTEDSARLSWTAPDAAFDSFWIRYDEVVVGGEAIVLTVPGSERSYDLTGLKPGTEYYVNILGVKGGSISVPLSAIFTTAPAPAPAPAPLAEAKVLANRELDKYGVSDYYKNLINNAKTVEGVKALLDEILAALP
modifications: Bispecific EGFR/c-Met binding molecule
B11: ECB28: bispecific SEQ ID NO: 119: P53A1R5-17v2, (AP)5, P114AR5P74-A5, linked to albumin binding domain (protein)
chain: MLPAPKNLVVSEVTEDSARLSWADPHGFYDSFLIQYQESEKVGEAIVLTVPGSERSYDLTGLKPGTEYTVSIYGVHNVYKDTNMRGLPLSAIFTTAPAPAPAPAPLPAPKNLVVSRVTEDSARLSWTAPDAAFDSFWIRYDEVVVGGEAIVLTVPGSERSYDLTGLKPGTEYYVNILGVKGGSISVPLSAIFTTAPAPAPAPAPLAEAKVLANRELDKYGVSDYYKNLINNAKTVEGVKALLDEILAALP
modifications: Bispecific EGFR/c-Met binding molecule
B12: P114AR7P95-H8: c-Met-binding FN3 domain, SEQ ID NO: 49 (protein)
chain: LPAPKNLVVSRVTEDSARLSWTAPDAAFDSFWIRYFEFVSKGEAIVLTVPGSERSYDLTGLKPGTEYVVNIMGVKGGSISPPLSAIFTT
modifications: c-Met binding FN3 domain
B13: P114AR7P92-F6: c-Met-binding FN3 domain, SEQ ID NO: 35 (protein)
chain: LPAPKNLVVSRVTEDSARLSWTAPDAAFDSFWIRYFEFLGSGEAIVLTVPGSERSYDLTGLKPGTEYVVNILGVKGGGLSVPLSAIFTT
modifications: c-Met binding FN3 domain
B14: P114AR5P74-A5: c-Met-binding FN3 domain, SEQ ID NO: 32 (protein)
chain: LPAPKNLVVSRVTEDSARLSWTAPDAAFDSFWIRYDEVVVGGEAIVLTVPGSERSYDLTGLKPGTEYYVNILGVKGGSISVPLSAIFTT
modifications: c-Met binding FN3 domain
B15: P54AR4-37v2: EGFR-binding FN3 domain, SEQ ID NO: 29; stabilized P54AR4-37 (protein)
chain: LPAPKNLVVSEVTEDSLRLSWTWPYADLDSFLIQYQESEKVGEAINLTVPGSERSYDLTGLKPGTEYTVSIYGVHNVYKDTNMRGLPLSAEFTT
modifications: EGFR binding FN3 domain
B16: P54AR4-83: EGFR-binding FN3 domain, SEQ ID NO: 25 (protein)
chain: LPAPKNLVVSEVTEDSLRLSWDDPWAFYESFLIQYQESEKVGEAINLTVPGSERSYDLTGLKPGTEYTVSIYGVHNVYKDTNMRGLPLSAEFTT
modifications: EGFR binding FN3 domain

For one series, the system named is H292 cells. The series can be described thus: Inhibition of proliferation of HGF-induced H292 cells. The following applies: bispecific molecules. Type of series: cell-based, human. From the text:
Inhibition of tumor cell proliferation can be measured using standard methods and methods described herein.
The proliferation assay was completed using different combinations EGFR and c-Met binding FN3 domains either as a mixture or linked in a bispecific format. […] This confirmed that the avidity effect observed at the level of the receptors (FIG. 4 and FIG. 5) translates into an improvement in inhibiting cell signaling (Table 12) and cell proliferation (Table 13).
Inhibition of human tumor cell growth was assessed in standard attachment culture as described in Examples 3 or 6, or in low attachment conditions.
Turning to B1, the IC50 was 0.0296 µM.
B2: the half-maximal inhibitory concentration (IC50) turned out to be 2.64 µM.
Still for that read-out and setting: the figure for B3 is 0.383 µM; for B4 it is 11.4 µM; for B5 it is 0.484 µM.
The same measure, in the same setting: the figure for B6 is 0.031 µM.
Same read-out and setting: the figure for B7 is 9.48 µM.
Turning to B8, the half-maximal inhibitory concentration (IC50) came out at 0.574 µM.

For a further series, the system named is NCI-H292 cells expressing human HGF. Nature of the series: Tumor efficacy study with four bispecific EGFR/c-Met molecules, H292-HGF xenografts. The following applies: 25 mg/kg three times per week. Type of series: in vivo, SCID Beige mice. How it is done:
One week after implantation, mice were stratified into groups with equivalent tumor volumes (mean tumor volume=77.9+/−1.7 mm3). Mice were dosed three times per week with the bispecific molecules and tumor volumes were recorded twice weekly.
B9: the “tumor growth (tumor growth inhibition, TGI)” value is listed as “reduced tumor growth”.
For B10, the “tumor growth (tumor growth inhibition, TGI)” value was “reduced tumor growth”.
Same read-out and setting: the entry for B11 is “reduced tumor growth”.

The series is the same for the next values; noted with them: 25 mg/kg three times per week; listed as P53A1R5-17v2-P114AR7P94-A3.
For the molecule B9, the “tumor growth (tumor growth inhibition, TGI)” value is on record as “showed the most efficacy”.

Still in this series, the particulars now being: 25 mg/kg three times per week; listed as P54AR4-83v2-P114AR5P74-A5.
B10: the “tumor growth (tumor growth inhibition, TGI)” value is on record as “delay in tumor growth”.

Test system in the next series: not listed separately
The series can be described thus: Differential scanning calorimetry in PBS (thermal stability). The note with it: DSC in PBS, c-Met-binding FN3 domains. Type of series: physicochemical. Background: DSC measures the heat that a sample takes up or gives off during a temperature scan.
Turning to B12, the “Thermal Stability (Tm)” value came out at 83 C.
Same read-out and setting: the value for B13 was 76.8 C; that for B14 was 74.1 C.

Test system in a further series: not listed separately
The series is described as above. It counts as physicochemical. The note with it: DSC in PBS, EGFR-binding FN3 domains. From the text:
A subset of the EGFR binding FN3 domains was engineered to increase the conformational stability of each molecule. […] The new mutants, P54AR5-83v2, P54CR431-v2, and P54AR4-37v2 were expressed and purified as described above. Differential scanning calorimetry in PBS was used to assess the stability of each mutant in order to compare it to that of the corresponding parent molecule.
Differential scanning calorimetry in PBS was used to assess the stability of each FN3 domain.
B15: the midpoint of thermal melting (Tm) was determined as 64.2 °C.
On to B16, for which the Tm worked out at 50.6 °C.

As usually defined, the IC50 is the concentration that gives 50% inhibition. By Tm is commonly meant the temperature at which the thermal transition is half complete.
